The DeepSol protein solubility set

Assay: soluble on expression in E. coli; label from the status in PepcDB or PDB records

| Sequence | soluble on expression in E. coli |
| --- | --- |
| MEFSVKSGSPEKQRSACIVVGVFEPRRLSPIAEQLDKISDGYISALLRRGELEGKPGQTLLLHHVPNVLSERILLIGCGKERELDERQYKQVIQKTINTLNDTGSMEAVCFLTELHVKGRNNYWKVRQAVETAKETLYSFDQLKTNKSEPRRPLRKMVFNVPTRRELTSGERAIQHGLAIAAGIKAAKDLGNMPPNICNAAYLASQARQLADSYSKNVITRVIGEQQMKELGMHSYLAVGQGSQNESLMSVIEYKGNASEDARPIVLVGKGLTFDSGGISIKPSEGMDEMKYDMCGAAAVYGVMRMVAELQLPINVIGVLAGCENMPGGRAYRPGDVLTTMSGQTVEVLNTDAEGRLVLCDVLTYVERFEPEAVIDVATLTGACVIALGHHITGLMANHNPLAHELIAASEQSGDRAWRLPLGDEYQEQLESNFADMANIGGRPGGAITAGCFLSRFTRKYNWAHLDIAGTAWRSGKAKGATGRPVALLAQFLLNRAGFNGEE | soluble |
| MAYQVTTFYHFTRLNCLAEKQSRWQELGDRLGLKGTILLAEEGVNATIAGESAAIEEMVKIMAADLGLTSVPQRHSWAKTIPFQRMKVKIKPEIVSLGQPQVNPEKQVGTYVSPQQWNQLLQDPDVVVIDTRNDYEVAIGTFQGAVNPCTKKFRQFPDYVKNNLDQQKNKKVAMFCTGGIRCEKASAYLLEEGFAEVYHLRGGILHYLETIAPEESLWQGECFVFDERVAVQEGLKVGSHALCDHCGYPLRVGDLAEIRYAVRHCPQCGLTVAVSNELLEHHHHHH | soluble |
| MSETATWQPSASIPNLLKRAAIMAEIRRFFADRGVLEVETPCMSQATVTDIHLFPFETRFVGPGHSQGINLYLMTSPEYHMKRLLAAGCGPVFQLCRSFRNEEMGRHHNPEFTMLEWYRPHYDMYRLMNEVDDLLQQVLDCQPAESLSYQQAFQRHLEIDPLSADKTQLREAAAKLDLSNIADTEEDRDTLLQLLFTMGVEPHIGKEKPTFIYHFPASQASLAQISTEDHRVAERFEVYYKGIELANGFHELTDAREQQQRFEQDNRKRAARGLPQQPIDQNLLDALAAGLPDCSGVALGVDRLVMLALGAESLADVIAFTVDRA | not soluble |
| MFDDLHEYLDFLARKNDLITVNDQVDPDLELTYILSEEERIGRGRTIQFNRVKGSEVPAVGNLFSTYEKMKTVLGDDPYQIGRRIVEIAQPPGDSESFIGKGIEMMRELGGLRPKIAGSLPSNYDELDRVDLFRYPICKTWPQDGGKFITLPLVITKDPETGTRNMGMYRMQVYDSETTGMHWHIHKGGSENFQKEAQKHEVMDVAVVIGSDPLTIFSAVAPLPNGIDEFMFRGLVSKKRFDLVKGKTVNLEYPRNFEIVLEGYIDPAETRIEGPFGDHTGYYSLEEQFPVFHIKKIIERRDRIYPTTIVGKLWHEDVIMGKTIERMFLPLIQMVMPEVVDINTMEEAVFHNMVIVSIKKRYPGHAKKVMFGLWGMGQMMFSKIIVVVDDDINVHNRKEVIWAMTTRIDPDRDVIIIPGTVTDSLDHASPIFNYGSKMGIDATKKRPDEGYQRRWPDVLEMPEDVTNRVRDLMKKNGMTQLEHHHHHH | not soluble |
| MCAHEGKQYKNDTTFISQGSFRMKCVTFKNLTSTLEVISCITPAGVEISIGTQLEEGDKVFECTPGNVTLKSTPGQTGKCRGVYSVGDTWVEDSFRLLCEPYGKVNLKSCISKEGVEIPLGEARRVPAGYAMECVTVNGNVALQTAKTFDCETGTGEIKKFGDTWNEGNFVRRCANYGVSAIIGCYADGVGSIGLNQNMTSGDFLYMCINQNEQFKFRTLKAT | not soluble |
| MGSDKIHHHHHHMTSSRSRYLSVMGRELHVTEWGDEAAPALVMWHGLARTGRDFDTLAAHFCDRYRVVCPDTLGRGLSGWSRVPRRDYTLAAYMKHALELLGLLGIDRVTWIGTSMGGALGMLLAAGPLAGRMDRLVMNDIGPTLNPVAVERIRNYLAQHPSFRTMTEFEAYLRQVYRPYGFQTDLEWRRMTETSARRRGDGRITPHYDPAVMRVFAETAGDYEAWGEYDLITCPTLVLRGAESDLLLPEVAQEMTRRGPKARLVTVAGCGHAPSLNVPEQIGVIEDFLA | not soluble |
| EASLTGAGATFPAPVYAKWADTYQKETGNKVNYQGIGSSGGVKQIIANTVDFGASDAPLSDEKLAQEGLFQFPTVIGGVVLAVNIPGLKSGELVLDGKTLGDIYLGKIKKWDDEAIAKLNPGLKLPSQNIAVVRRADGSGTSFVFTSYLAKVNEEWKNNVGTGSTVKWPIGLGGKGNDGIAAFVQRLPGAIGYVEYCYAKQNNLAYTKLISADGKPVSPTEENFANAAKGADWSKTFAQDLTNQKGEDAWPITSTTFILIHKDQKKPEQGTEVLKFFDWAYKTGAKQANDLDYASLPDSVVEQVRAAWKTNIKDSSGKPLY | soluble |
| MSLDAISAATHSDPYFYYTRLRARGGLTYDCALRLWVASSAAAVAAVLDHPACQVRPSTEPVPQAIAGRPAGQLFGRLMRMNDGPRQRCPRAAIEPALQGLCTAGLETHLARWQPALAGPACAADLQRWQFVLPVALLASLLGVPAEQCETLARRTGEFVACFSPLSDQPRLQAADRAALELDAQMQALVQAPQHSPLLRQILDRSGELAPADLRANLAGLLAQTHDACAGLVGNSLVALLAAPAMQQRLRQEPGLLGDWLLERQRLDPPVQNTRRFVTAPCTVHGVELQAGETILVLLAAANQDPALAAITGSNPAHQGFSFGAGAHRCPGRELALGIVRCLLHALLQGPGLDALALDWQYQASVNGRIPLFSDRGEAEGHHHHHH | not soluble |
| MFMNKPFGSKRCEPFHESEHLCEAFAITEAILARYQRGKRSFTSSEKSGLAALIKRIPYDILVEVLDQSGFTPTSNATPPVDYLAMMEHTMTHGASITHALQYLNDLMTKCTGCPGIRTYYHNPNDDVLADPVHDTAALIDETTAVGKSVVTKQYLNIAGAHYIPLIHGDIVVGCVEVPRFSGNLEKLPSFPSLIRAVTCTAHKFIEEARINWNREKAEAMLQMATRLARDNLDETVLASSIMNTVKSLTESARCSLFLVKDDKLEAHFEDGNVVSIPKGTGIVGYVAQTGETVNIVDAYADDRFNREVDKATGYRTKTILCMPVMYEGTIVAVTQLINKLDLTTESGLRLPRVFGKRDEELFQTFSMFAGASLRNCRINDRLLKEKKKSDVILDVVTVLSNTDIRDVDGIVRHALHGAKKLLNADRSTLFLVDKERNELCSRMADSVAGKEIRFPCGQGIAGTVAASGVGENIQDAYQDPRFNREVDKQLGYRTQTILCEPIILNGEILAVVQLVNKLDTSGEVTVFTEDDRDTFRVFSLFAGISINNSHLLEFAVKAGREVMELNEHRATLFNKNVPSRAVKRVTAITKVEREAVLVCELPSFDVTDVEFDLFRARESTDKPLDVAAAIAYRLLLGSGLPQKFGCSDEVLLNFILQCRKKYRNVPYHNFYHVVDVCQTIHTFLYRGNVYEKLTELECFVLLITALVHDLDHMGLNNSFYLKTESPLGILSSASGNTSVLEVHHCNLAVEILSDPESDVFDGLEGAERTLAFRSMIDCVLATDMAKHGSALEAFLASAADQSSDEAAFHRMTMEIILKAGDISNVTKPFDISRQWAMAVTEEFYRQGDMEKERGVEVLPMFDRSKNMELAKGQIGFIDFVAAPFFQKIVDACLQGMQWTVDRIKSNRAQWERVLETRLSTSSGNNSSTR | not soluble |
| MAFRLAVDCLGFENHPREAIDAVLEYWSYHQELEFILVGDEKTFDGLDYLPKNITKQLASSCIDMTDTPLTARRKVNNSMQKAINLVRDGAADVVISAGSSAVYASLTYDGFGKIHKDVKSAFMSYVPTANNDWFYFLDVGANKNFTGKELYFLGLMADIFVKKTTNKISPRIALLNIGTEIHKGFDYHQEGYQLLNEDKHLNFTGFIEPRFLLDGVCDILVADGYSGNLVLKSMEGTFKTIARLLKQGYKRNPLAGLFSLGILKRIAKRFDYKNNAGAVVIGLNKLALKTHGSADKQQFLSTIRLAHTSLKSDLINAIKSSLDNYEK | soluble |
| MAHHHHHHMNVRKGILNYLTLHSTIVRRNHHRSYHKECRQQGSPHGMEKNSKMKNVRPNYFVCIPLSGNKALVEEFLKVQNHVASKFEMLKECAIERNKFHISLLILHVKKSQMESSKEAFHEAMAEIKKLNHQAISFDTLETFRNDVLYAGLQEGSRKYVMNVIALLRDSFAKRDIHIFGNRKGREEARGKKRASGASDKSAANPIDKSAANPSDKSAAPPGTHERDDKEQITPHVTIMKNSYLRKIYANRKPQIFADYYADFNLSKLKNERVVPNKIQFLEMDTDSATSYYRIIAECGLP | not soluble |
| MVYRCTGCGQSQPKWSGQCGGCGQWNTLVEEIEAPAVGRRRAGYAGAAEGSMPVSLAEVSREDLSRVTSGLGELDRVLGGGVVPGSAILLGGDPGIGKSTLLLQTLAYLGKSARTLYVTGEESLSQVSLRAHRLGLDGHGIQALAETSLERILDTAERHKPEVLVVDSIQTVYSEALQSAPGSVGQVRECSAQLVRYAKQSSTTVFLVGHVTKEGALAGPRVLEHMVDTVLYFEGDASSRYRVVRSFKNRFGAVNELGVFAMTETGLKEVRNPSAIFLSRGDEDMPGSIVTVTREGSRPLLVEVQALVDESHLQSPRRLVVGMEMNRLAMLLAVLHRHGGVPVAAQDVFVNLVGGVRLTETAGDLAIACAVVSSFRDRPVPGEWVIFGELGLNGEIRPVPNGEERLREAAKHGFKYALVPAKNAPKQGVPGVSIIAARNLREAINALLEHHHHHH | soluble |
| MNKFFSADKKGGEKRRKKSKKKVRIVGMSEIGIWRQDDTMRIVHLSVWCILKRTTASLSGNEWKLSTRHANDGYIVRSPPTISGPERLQENGYVIWILL | not soluble |
| ILLPSKPRFIFQDVTVFNFNVSGNPSDLNTPVVQFNLSFRNPNANIRIYYDTLDVYAFYGNGSQQIIIPTPMPSTYQGHKEDSVWSPYIPVVPYNALYLDDQHHSRDGNMLMLHLDGRISWLLLGN | not soluble |
| MSLEAKKSKAIVFSGVNQIELREVTLKPVSSTDVLVETWWSSISTGTEKMALNGLIPSPPFIFPFIPGYETVGRIVEAGDHVNQGLIGKFAYVAGSFGYEDVNAAFGGASQFIVCPVESLTVLDGIANPQCGIALPLGATALHIVDLAEVKNRKVLVLGQGAVGILAAELAKRFGASLVAVTEPHQRRLDISTSDIKVNPEKQDVSVALAGHEFDVLIDSTGIMSAIETGLRFLKFHGKVIFGGYYQRMNIDYSQAFNKELSFIAARQWAKGDLHRVRELIAAGKINAEKIFTHQCTVDDNLMEAYMQAFSDSDCLKMIIHWKHGNEAGEHFPTCNTANEGHHHHHH | soluble |
| MGSDKIHHHHHHMRIAIDPFMHRHLSLEELPRKVRELGYDWIEMSPRADFLEWFKAPRVFPQRMKEFKKALAAENVKIASLLPMYRWASNDETERKAAVKHWKRAIEIAVEMEIDTMNSEFGRGPHPDKGSCYCCHTGSMIEACEDAWWRSMEELVPVFERENIQLNIEPHPEDWCETLQPALDIIRTVNSKNVKFLYCAPHTFYFGDDTKAMLREAKDVLAHVHVGDTFNHKASSGLRYILNPPGTQARVHQHLNIGQGEVPWDDFFGTLAEIGFDGTMTACVFAWEDRADHSGKFMLSEMNRYIEKYWPK | not soluble |
| MSLTELYAKSDLEKIKETLPGWQLDSFNYLNEKIGDKENKFPCIPGRQAFLSDQLRIAFVGDPRNPETAKELAPLLTRYGTISRETGKYASLTVIFHTPEELLTDYKIEDYESLFWQLLNSLSMEDPADWPDDIPENPDNFQWEYCFNGEPYFVLCATPAHSKRKSRSFPYFMLTFQPRWVFEDLNDTTAFGRNMSKQIRKRLEAYDEVPIHPHLGWYGKKDNLEWKQYFLRDDENQVSQCPFMKMKNLFKKERSDEGHHHHHH | soluble |
| MGSDKIHHHHHHMVAVPQAHPLSVAEYLQFEAASEIKHEYRAGEVYAMADITDVHNTIVGNWVALIRSHVRGSSDRVYCSAMQVWLQQANCIYYPDLLVTCDPRDQETVNYKRFPKLIVEVLSPSTEAFDRGDKFADYQTLETLEEYVLISTSRQRVDCFRRSLEGVWTLQFYLPNAEVLPLRSIGLEVRLSDLYEDVTLPAPPSIPESLEESR | not soluble |
| MKSHKMMGGGISMHYITACLKIISDKDLNEIMKEFKKLEEETNKEEGCITFHAYPLEPSERKIMLWEIWENEEAVKIHFTKKHTIDVQKQELTEVEWLMKSNVND | soluble |
